According to article PMC5006590:

Assay: pseudovirus neutralisation, TZM-bl
Settings: glycan lost; control: wild type

Substance | other: neutralisation sensitivity, other: ID50 (reciprocal plasma dilution)
HIV-1 CAP239.G3 Env: N332A | decreases, 204.60 vs 1096.00
HIV-1 25711-2.4 Env: N160A | no change, 1484.35 vs 1822.04
HIV-1 25711-2.4 Env: N301A | decreases, 749.81 vs 1822.04
HIV-1 25711-2.4 Env: N332A | decreases, 357.36 vs 1822.04
HIV-1 CAP239.G3 Env: N160A | increases, 4184.00 vs 1096.00, Fold decrease in ID50 0.26
